# Measured values as given in patent US20060286117A1, “Neuronally expressed stem cell factor modulates angiogenesis and neural stem cell migration to areas of brain injury” (priority 2003, published 2006).
# “Also recorded” adds a separate entry of the source.
# Key:
# [1] = test system: SCID mice; experiment: In vivo angiogenesis assay, subcutaneous Matrigel plugs with SCF or β-FGF; design: species or system mouse; details: subcutaneous Matrigel in adult SCID mice, fourteen days after injection
# Experimental: Confluent-grown ECs were treated with 50 ng/ml of SCF for 5, 10, 15, and 30 min after 24 hr of serum starvation. The ECs were collected with RIPA lysis buffer (Upstate, Charlottesville, Va.) containing 50 mM NaF, 1 mM Na3VO4, […], and Protease Inhibitor Cocktail (Roche). The antibodies were purchased from Cell Signaling Technology, Inc. (Beverly, Mass.) or as mentioned otherwise. All the primary antibodies were used in a 1:1000 dilution except for the anti-SCF antibody, which was used in a 1:2000 dilution. The primary antibodies were anti-phospho-c-Kit, anti-phospho-MEK1/2 and anti-MEK1/2, anti-phospho-p44/42 MAPK and anti-p44/42 MAPK, anti-phospho-SAPK/JNK and anti-SAPK/JNK, anti-phospho-p38 MAPK and anti-p38 MAPK, anti-phospho-Akt and anti-Akt, anti-phospho-mTOR and anti-mTOR, anti-phospho-4E-BP1 and anti-4E-BP1, anti-SCF and anti-VEGF (Chemicon, Temecula, Calif.), and anti-β-tubulin (Sigma). Re-blotting was done after membranes were stripped by re-blot kit (Chemicon). Tie2 detection in Matrigel plugs from the in vivo Matrigel assay was carried out by immunoprecipitation and immunoblotting. The gel plugs were carefully separated from muscle and skin and homogenized with RIPA lysis buffer. The resulting total tissue lysates ([…]) were immunoprecipitated with Tie2 antibody (Santa Cruz Biotechnology, Inc., Santa Cruz, Calif.) and then analyzed by immunoblot with Tie2 antibody (Zadeh et al. 2004 Am J Pathol 162:467-476).
# All adult mice (6-8 weeks of age) were from NCI-Fredrick, and the animal experiments were conducted on an animal experimentation protocol approved by the NCI's animal protection committee (the “ACUC”). […]
# [2] = target: human c-Kit (SCF receptor) on human cells (NSPCs, HUVEC, HBMEC) (human) (UniProt P10721); experiment: cell-based or functional assay
# [3] = target: mouse c-Kit (SCF receptor) on mouse NSPCs (mouse) (UniProt P05532); experiment: cell-based or functional assay
# Sequence of mouse c-Kit (SCF receptor) on mouse NSPCs (mouse) (P05532 25-979): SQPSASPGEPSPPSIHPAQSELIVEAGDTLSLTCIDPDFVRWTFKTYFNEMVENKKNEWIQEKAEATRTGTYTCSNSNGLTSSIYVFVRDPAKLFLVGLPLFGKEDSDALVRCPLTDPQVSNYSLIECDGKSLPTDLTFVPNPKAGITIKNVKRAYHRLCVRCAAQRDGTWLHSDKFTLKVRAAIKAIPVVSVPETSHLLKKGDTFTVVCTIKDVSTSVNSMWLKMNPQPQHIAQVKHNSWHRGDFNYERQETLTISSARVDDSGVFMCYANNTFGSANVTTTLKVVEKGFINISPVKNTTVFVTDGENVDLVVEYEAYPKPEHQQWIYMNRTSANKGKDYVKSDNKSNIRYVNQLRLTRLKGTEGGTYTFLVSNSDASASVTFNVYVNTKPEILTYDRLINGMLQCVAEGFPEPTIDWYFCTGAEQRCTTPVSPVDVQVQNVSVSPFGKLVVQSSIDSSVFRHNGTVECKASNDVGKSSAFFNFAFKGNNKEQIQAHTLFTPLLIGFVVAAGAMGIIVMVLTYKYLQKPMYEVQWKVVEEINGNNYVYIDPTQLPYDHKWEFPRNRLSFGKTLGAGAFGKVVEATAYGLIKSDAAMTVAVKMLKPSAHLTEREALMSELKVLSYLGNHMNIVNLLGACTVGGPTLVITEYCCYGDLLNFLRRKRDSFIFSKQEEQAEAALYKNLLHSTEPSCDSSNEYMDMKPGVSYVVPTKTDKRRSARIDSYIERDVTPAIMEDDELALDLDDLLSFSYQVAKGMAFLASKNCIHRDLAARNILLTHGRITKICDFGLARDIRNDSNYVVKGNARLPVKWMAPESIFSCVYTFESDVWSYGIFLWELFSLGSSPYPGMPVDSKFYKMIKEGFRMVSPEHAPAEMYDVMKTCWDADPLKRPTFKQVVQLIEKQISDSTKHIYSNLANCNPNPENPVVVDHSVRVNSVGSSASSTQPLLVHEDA
# [4] = test system: U251 glioma; experiment: Subcutaneously implanted U251 human glioma growth; type: in vivo, mouse; details: nude mice
# [5] = target: T1, c-Kit (Mus musculus, UniProt P05532); experiment: c-Kit tyrosine phosphorylation by immunoprecipitation and immunoblot, mouse NSPCs; type: cell-based; details: 100 ng/ml of rmSCF, 10 min
# T1 construct: The 120-kDa and 140-kDa bands represent the c-Kit proteins in the human and mouse NSPCs; endogenous in cells; host or cells: mouse E14 NSPCs (neurospheres)
# T1 sequence (P05532 25-979): as above
# Experimental: (§1) Injured dorsal forebrains were dissected 24 hours, 3 days, 5 days, 7 days and 12 days after injury and were homogenized in a lysis buffer containing 50 mM Tris-HCl (pH 8.0), 120 mM NaCl, 0.5% Nonidet P-40, and Protease Inhibitor Cocktail (Roche, Indianapolis, Ind., USA). Brain tissue was kept on ice for 30 min and supernatants were collected after centrifugation. The brain lysates were separated by a 4-12% polyacrylamide gel electrophoresis (Invitrogen) and transferred to the membranes. The filters were blotted with rabbit polyclonal anti-SCF antibody (1:50 dilution; Chemicon, Temecula, Calif., USA). The NSPCs were treated or not treated with 100 ng/ml of rmSCF or were left untreated for 10 min and then were washed with ice-cold PBS. Some mouse NSPCs were treated with rat monoclonal c-Kit blocking antibody, (ACK4; PharMingen, San Diego, Calif., USA) for 30 min at room temperature before SCF stimulation. The NSPCs were resuspended in a protease inhibitor mixture containing radioimmunoprecipitation (RIPA) buffer (1% NP-40, 0.5% Sodium deoxycholate, 0.1% SDS, 0.1 mg/ml PMSF, 0.1 mM NaVO4 in PBS). The cell lysates were pre-cleared with protein A-Sepharose (Amersham Pharmacia Biotech, Piscataway, N.J., USA), incubated with rabbit polyclonal antibody to c-Kit (Clone H-300, Santa Cruz, San Diego, Calif., USA), and collected on protein A-Sepharose beads. […]
# [6] = test system: bMVEC-B cells; experiment: bMVEC-B DNA synthesis by thymidine incorporation (Example 3); type: cell-based; details: 72 hours
# Experimental: To specifically confirm the pro-angiogenic effects of SCF in the brain, bMVEC-B cells were used. The cells were cultured in the presence of different concentrations of rmSCF (1 ng/ml to 250 ng/ml) or 0.1% BSA only medium for 72 hours. The rate of DNA synthesis was measured by thymidine incorporation.
# [7] = test system: SCID mice; experiment: In vivo angiogenesis assay, matrigel plug with rmSCF (Example 3); design: species or system mouse; details: rmSCF 50 ng/ml, subcutaneous, 7 days, vs PBS control
# Experimental: Recombinant mouse SCF (rmSCF) was used at 50 ng/ml in an in vivo angiogenesis assay. The matrigel plug containing SCF or PBS control was placed subcutaneously in SCID mice for 7 days, and the blood vessel formation within the gel was examined by H&E staining. […] In the higher magnification figure on the right side, the red blood cells inside of the newly formed vessel are indicated by an arrow.
# [8] = test system: NIH 3T3 cells; experiment: Boyden chamber migration assay, NIH 3T3 negative control cells; type: cell-based; details: regardless of the concentration used
# Experimental: (§2) The effects of SCF on NSPC migration were determined by a modified Boyden chamber assay as described previously (Sun, L. et al. 2001 Cancer Res. 61:4994-5001). A 96-well cell migration kit was utilized (Chemicon, Temecula, Calif., USA) and each well was separated into two chambers by a membrane with 8-μm pores. The cells were briefly trypsinized and adjusted to 4×10^5 cells/ml in 1:20 dilution of B27 medium without growth factors. Some cells were pretreated with a c-Kit-blocking antibody (ACK45, PharMingen, San Diego, Calif., USA) for 30 min at room temperature. Migration of NIH 3T3 cell was also assayed as a control. Recombinant mouse SCF (rmSCF) (R&D systems, Minneapolis, Minn., USA) was dissolved in the same medium and adjusted to the various concentrations. After different concentrations of SCF or brain tissue lysates were added to the lower chamber as attractants, 100 μl of the NSPCs (4×10^4) were applied to the upper chamber on the top of membrane. A group of control chambers without rmSCF was also included. After 4 hours of incubation at 37° C., the migratory cells on the bottom of the insert membrane were dissociated from the membrane by incubation with cell detachment buffer.
# [9] = target: T2, c-Kit (Homo sapiens, UniProt P10721); experiment: c-Kit tyrosine phosphorylation by immunoprecipitation and immunoblot, human NSPCs; type: cell-based; details: 100 ng/ml of rmSCF, 10 min
# T2 construct: The 120-kDa and 140-kDa bands represent the c-Kit proteins in the human and mouse NSPCs; endogenous in cells; host or cells: human fetal NSPCs (neurospheres)
# Experimental: as §1
# [10] = test system: endogenous NSPCs; experiment: In vivo progenitor cell migration, BrdU labeling and intracerebral rmSCF injection; design: species or system mouse
# [11] = test system: human NSPCs; experiment: Boyden chamber migration assay, human NSPCs; type: cell-based
# Experimental: as §2
# [12] = test system: mouse NSPCs; experiment: Boyden chamber migration assay, mouse NSPCs; type: cell-based
# Experimental: as §2
# [13] = rmSCF 3 μg intracerebral, day 7, SCID mice
molecule,measurement,setting,value
β-FGF: positive control angiogenic growth factor (R&D Systems) [reference compound],"angiogenesis in Matrigel plug (H&E, vWF-positive vessels)",[1],high density of blood vessels; also recorded: induced substantial angiogenesis
Recombinant mouse SCF (rmSCF) (from UniProt P20826 26-189) (ligand),lowest rmSCF concentration with a statistically significant increase in NSPC migration (Boyden chamber),[2],10 ng/mL
same,lowest rmSCF concentration with a statistically significant increase in NSPC migration (Boyden chamber),[3],5 ng/mL
"bevacizumab: VEGF antibody (Genentech), systemically administered",subcutaneous tumor growth,[4],suppressed subcutaneously implanted human glioma growth; also recorded: profound tumor growth suppression
rmSCF: Recombinant mouse SCF (rmSCF) (R&D systems) (protein) KEICGNPVTDNVKDITKLVANLPNDYMITLNYVAGMDVLPSHCWLRDMVIQLSLSLTTLLDKFSNISEGLSNYSIIDKLGKIVDDLVLCMEENAPKNIKESPKRPETRSFTPEEFFSIFNRSIDAFKDFMVASDTSDCVLSSTLGPEKDSRVSVTKPFMLPPVA,c-Kit tyrosine phosphorylation following SCF stimulation,[5],strongly phosphorylated
same,lowest concentration at which bMVEC-B responded to SCF stimulation,[6],1 ng/mL
same,bMVEC-B DNA synthesis (thymidine incorporation),[6]; rmSCF 1 ng/ml to 250 ng/ml,strongly stimulated bMVEC-B DNA synthesis
same,blood vessel formation within the matrigel plug (H&E),[7],obviously abundant
same,migration of NIH 3T3 cells,[8],did not induce migration
same,c-Kit tyrosine phosphorylation following SCF stimulation,[9],strongly phosphorylated
same,number of BrdU-positive cells in SCF-injected area (1.5-mm^2 section) compared to the contralateral side,[10]; [13],approximately twice
same,"number of BrdU-positive cells in injected area, SCF-treated compared to PBS-treated animals",[10]; [13],2.3 times
same,BrdU-positive cells in the SCF-injected area,"[10]; vs contralateral side and PBS-injected animals, day 7",significant numbers of BrdU-positive cells
same,lowest SCF concentration with statistically significant increase in cell migration,[11],10 ng/mL
same,NSPC migration,"[11]; rmSCF 5-500 ng/ml, 4 hours",stimulated in a dose-dependent manner; also recorded: significant chemoattractive effect on NSPC in a dose dependent manner
same,lowest SCF concentration with statistically significant increase in cell migration,[12],5 ng/mL
same,NSPC migration,"[12]; rmSCF 5-500 ng/ml, 4 hours",stimulated in a dose-dependent manner; also recorded: significant chemoattractive effect on NSPC in a dose dependent manner
